Measurements taken from patent US20250066456A1 (NOVAVAX, published 2025).
Where two headings read alike, the source gives them in different places.

Legend:
[1] = target: T1, Delta Plus CoV S glycoprotein (recombinant) (Severe acute respiratory syndrome …, UniProt P0DTC2 14-1273)
[2] = target: BV2465 (recombinant CoV S glycoprotein, Delta) (SARS-CoV-2, UniProt P0DTC2 14-1273); assay: ELISA, plate coated with rS, serial dilution of the mAb, anti-mouse HRP, A450
[3] = target: BV2425 (recombinant CoV S glycoprotein, Alpha) (SARS-CoV-2, UniProt P0DTC2 14-1273); assay: as above
[4] = target: T2, BV2509 (recombinant CoV S glycoprotein, BA.1) (SARS-CoV-2, UniProt P0DTC2 14-1273); assay: as above
[5] = target: T3, BV2443 (recombinant CoV S glycoprotein, Gamma) (SARS-CoV-2, UniProt P0DTC2 14-1273); assay: as above
[6] = target: BV2438 (recombinant CoV S glycoprotein, Beta) (SARS-CoV-2, UniProt P0DTC2 14-1273); assay: as above
[7] = target: T1, Delta Plus CoV S glycoprotein …; remark: listed apart in the source
[8] = target: T2, BV2509 (recombinant CoV S glycoprotein, …); assay: ELISA, plate coated with rS, serial dilution of the mAb, anti-mouse HRP, A450; remark: listed apart in the source
[9] = target: T3, BV2443 (recombinant CoV S glycoprotein, …); assay: as above; remark: listed apart in the source

B1: 425.6 (antibody, V domains shown)
VH: VQLKQSGPSLVQPSQSLSITCTVSGFSLTSYGIHWVRQSPGKGLEWLGVIWRGGSTDYNAAFMSRLTITKDNSKSQVFFKMNSLQADDTAIYYCATHTEGDDVDYWGQGTSVTVSS
VL: QIVLTQSPAIMSVSPGEKVTMTCSASSTMSFMYWYQQKPGSSPRLLIYDTSNLASGVPVRFSGSGSGTSYSLTISRVEAEDAATYYCQQWNTYPLTFGAGTKLELKR
EC50 [1]: 0.0098 µg/mL
EC50 [2]: 0.012 µg/mL
EC50 [3]: 0.011 µg/mL
EC50 [4]: > 1 µg/mL
EC50 [5]: 0.01 µg/mL
EC50 [6]: 0.011 µg/mL

B2: 322.3 (antibody, V domains shown)
VH: RVQLQQSGPELVKPGASVTISCKASGYIFTSDYIHWVKQRPGQGPEWIGWIYPGNINTKYNEKFKGKATLTADKSSSTAYMQLSSLTSEDSAVYFCARDDGNLYYYAMDYWGQGTSVTVSS
VL: NIVLTQSPASLAVSLGQRATISCRASESVDSYGSSFMHWYQQKPGQPPKLLIYLASNLESGVPARFSGSGSRTDFTLTIDPVEADDAATYYCQQNNEDPRTFGGGTKLEIK
EC50 [7]: 0.054 µg/mL
EC50 [8]: 0.144 µg/mL
EC50 [9]: 0.084 µg/mL
